# Measured values reported in the RNAGym collection of RNA variant scans (doi:10.1073/pnas.2313332121).
# Variants at the floor of the assay were thinned out.
# B1: TPR 5TU (parent)
# chain: GGAUCUUCUCGAUCUAACAAAAAAGACAAAUCUGCCACAAAGCUUGAGAGCAUCUUCGGAUGCAGAGGCGGCAGCCUUCGGUGGCGCGAUAGCGCCAACGUUCUCAACUAUGACACGCAAAACGCGUGCUCCGUUGAAUGGAGUUUAUCAUG
# Variants of: B1
# Test: polymerase ribozyme fitness, log enrichment relative to wild type (log ratio); higher = more active; in vitro selection for triplet polymerase activity
# How it was run: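 Fitness measures genotype enrichment against wild-type enrichment on a logarithmic scale, with inverse-variance-weighted averaging of replicates. The logarithm is base 2, and genotypes were kept only with ≥10 input reads and ≥1 read per output in Illumina sequencing. The sequenced libraries came from one triplicate in vitro selection round, including frozen incubation at −7 °C, of PCR-built, transcribed mutant libraries of each subunit of a heterodimeric triplet polymerase ribozyme.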
row,Variant,polymerase ribozyme fitness (log ratio)
1,C96A C116G G136C,-3.22
2,C93U C96A,-1.65
3,G94C G126A,0.311
4,C96A A137U,-3.87
5,C93U U104G,-1.8
6,C96A G126C,-0.953
7,C93A G124A,-2.59
8,C96A A120U G140U,-3.09
9,C93A U101G U139C G141C,-3.88
10,C93G A115G C131U,-3.48
11,C93U A97U C116A G133A,≤ -4.2
12,C93A A110U,-3.99
13,C93A U101C G124U,-2.74
14,C93U U134A,-4.01
15,G94A U139C,-3.82
16,G92U A137G U145C,-1.11
17,C93G A97U,-3.39
18,C95U C123A C125U,-0.165
19,C95G C96U A120U A122C U139G,-1.86
20,G94A U104C C149U,-1.16
21,C93A G136A,-1.14

row,Variant,polymerase ribozyme fitness (log ratio)
1,C93A G136U,-4.17
2,C93A U148G G152U,≤ -4.2
3,G92U C95A A115G A147C,≤ -4.2
4,G92U C93A G133U G140A,≤ -4.2
5,C93G C108G A142C C149U U151G,≤ -4.2
6,C93U C95G,-2.26
7,C93U A106C,-1.75
8,G94A C116G,0.466
9,C93U G141C,-1.55
10,C93U G141U,-0.142
11,C95U U111G,≤ -4.2
12,C93U G140U,-3.59
13,G92U C99U U144G,0.0398
14,C93U G117C C125A,-0.271
15,C96A C132G,-3.72
16,G94U C114G C116U,≤ -4.2
17,G94C A97G C116A,-0.587
18,G94C G126A C132A,-2.93
19,C93A A150G,-3.51
20,C93U A113U A119C G140U,-3.82
21,C93U C116U,-0.9

row,Variant,polymerase ribozyme fitness (log ratio)
1,C96A G124A,-0.328
2,C96A G124U,-0.674
3,G94C U101C,-0.185
4,C93U G141A U146G,-3.48
5,C95A G141C,0.744
6,C93U U109C,≤ -4.2
7,C93G C108U C116G,≤ -4.2
8,G94A C108A A137C,≤ -4.2
9,C96A G117U A138U,≤ -4.2
10,C93A G124C U127C G133C U135A U148G,≤ -4.2
11,C95U C96U G124U G136C,-3.61
12,C93U A137C,-4.07
13,C96A G112C,-3.31
14,C93U A97U C125A,-2.13
15,C95A C99A C123G,-1.33
16,C93A A106C A120U,-2.8
17,G94A U101G,-0.0834
18,C93G C96U,-3.61
19,C93U G117A A142C,-4.07
20,G94A C96U C99G U144G,≤ -4.2
21,G94A C116U A122U G136A,-0.164

row,Variant,polymerase ribozyme fitness (log ratio)
1,C96A U104A G124C,-1.19
2,C96A U130C,0.457
3,G92U A106G,-0.318
4,G92U A106C,-0.0112
5,C93A U130A,≤ -4.2
6,C93U C114U G141A,≤ -4.2
7,C93A A138U,-4.18
8,G92U C95U A137U,-4.11
9,C96A C105U A122U,0.463
10,C93A C105U,-2.67
11,C96A U127A,-3.79
12,C96A G128U,-2.45
13,G94C A122C A137U,-4.05
14,C93U C95U C149A,≤ -4.2
15,C93G A150G,-4.14
16,G94U G143U,-3.64
17,C93G A97U A121G,≤ -4.2
18,C95U A98G C105U,0.768
19,G92U C93U A138C,≤ -4.2
20,G94A A137C,-3.2
